Data as given in patent publication US20240228626A1 (IMMUNORIZON, published 2024).

T1: NKG2D on primary NK cells purified from healthy donor's PBMCs (human, UniProt P26718 1-216)
T1 construct: whole, on cells
T1 sequence (looked up): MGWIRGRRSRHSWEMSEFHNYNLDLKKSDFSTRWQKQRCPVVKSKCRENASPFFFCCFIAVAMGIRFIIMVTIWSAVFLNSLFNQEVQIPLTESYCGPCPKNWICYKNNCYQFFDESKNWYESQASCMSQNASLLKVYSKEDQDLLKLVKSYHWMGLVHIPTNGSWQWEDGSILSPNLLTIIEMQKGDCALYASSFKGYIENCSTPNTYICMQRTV

B1: IM1246 CD3x5T4x NKG2D-cl-9 (L-H) (protein, part only; not given: anti-CD3 Fab, anti-5T4 scFv, linkers, not shown: another chain or arm of the molecule; small tags and cut ends)
VL: DVLMTQTPLSLPVSLGDQASISCRSSQSIVHTNGNTYLEWYLQKPGQSPKLLIYRVFNRFSGVPDRFSGSGSGTEFTLKISRVEAEDLGVYYCFQGSHVPFTFGAGTKLELK
VH: EVKLLQSGGGLVQPGGSLKLSCAASGIDLSRYWMSWVRRAPGKGLEWIGEINPDSSTINYAPSLKDKFIISRDNAKNTLSLQMRKVRSEDTALYFCIRRRYYGSSYWYFDVWGTGTTVTVSS
B2: mAb009 (antibody, V domains shown)
VH: B1 VH
VL: B1 VL
notes: Mouse hybridoma mAb, protein A purified; also called IM, NKG2D mouse hybridoma cl- 9; NKG2D-cl-9
B3: IM1247 CD3x5T4x NKG2D-cl-9 (H-L) (protein, part only; not given: anti-CD3 Fab, anti-5T4 scFv, linkers, not shown: another chain or arm of the molecule; small tags and cut ends)
VH: B1 VH
VL: B1 VL
B4: IM1250 CD3x5T4x NKG2D-cl-19 (L-H) (protein, part only; not given: anti-CD3 Fab, anti-5T4 scFv, linkers, not shown: another chain or arm of the molecule; small tags and cut ends)
VL: DILLTQSPAILSVSPGERVSFSCRASQSIGTSIHWYQQRTNVSPRLLIKYASESISGIPSRFSGSGSGTDFTLSINNVESEDIADYYCQHSNRWPLTFGAGTKLELK
VH: QVQLKESGPGLVAPSQSLSITCTVSGFSLTSYAISWFRQPPGKGLECLGVIWTGGGTNYNSVFKSRLSIIKDNSKSQVFLKMNSLQTDDTARYYCARKGDEGYWGYFDVWGTGTTVTVSS
B5: mAb019 (antibody, V domains shown)
VH: B4 VH
VL: B4 VL
notes: Mouse hybridoma mAb, protein A purified; also called IM, NKG2D mouse hybridoma cl- 19; NKG2D-cl-19
B6: IM1244 CD3x5T4x NKG2D-cl-1 (L-H) (protein, part only; not given: anti-CD3 Fab, anti-5T4 scFv, linkers, not shown: another chain or arm of the molecule; small tags and cut ends)
VL: DIVLTQSPASLAVSLGQRAIISCKASQSVSFAGSNLMHWYQQKPGQQPKLLIYRASNLEVGVPTRFSGSGSGTDFTLNIHPVDEDDAATYYCQQSREYPFTFGSGTKLEIK
VH: EVQLQQSGPELVKPGASVKISCKASAFNFTSYYLHWVKQGPGQGLEWIGWIYPGSGDTKYNEKFKGKATLTADTSSSAANMKLSSLTSEDSAVYYCARNRIFDSYYVDSMDYWGQGTSVTVSS
B7: IM1245 CD3x5T4x NKG2D-cl-1 (H-L) (protein, part only; not given: anti-CD3 Fab, anti-5T4 scFv, linkers, not shown: another chain or arm of the molecule; small tags and cut ends)
VH: B6 VH
VL: B6 VL
B8: mAb001 (antibody, V domains shown)
VH: B6 VH
VL: B6 VL
notes: Mouse hybridoma mAb, protein A purified; also called IM, NKG2D mouse hybridoma cl- 1; NKG2D-cl-1
B9: IM1248 CD3x5T4x NKG2D-cl-10 (L-H) (protein, part only; not given: anti-CD3 Fab, anti-5T4 scFv, linkers, not shown: another chain or arm of the molecule; small tags and cut ends)
VL: DIVLTQSPASLAMSLGKRATISCRASESVSIMGTNLINWYQQKLGQPPKLLIYHASNLETGVPARFSGSGSRTDFTLTIDPVEEDDVAVYYCLQGRKIPRTFGGGTKLEIK
VH: QVQLQQPGAELVKPGASVKLSCKASGYTFTTYWIQWIKQRPGQGLEWIGEIDPSDIFTNYNQKFKGKATLTVDTSSSTAYMQLSSLTSEDSAVYYCARGVYDGYYVGYFDVWGTGTTVTVSS
B10: mAb010 (antibody, V domains shown)
VH: B9 VH
VL: B9 VL
notes: Mouse hybridoma mAb, protein A purified; also called IM, NKG2D mouse hybridoma cl- 10; NKG2D-cl-10
B11: IM1249 CD3x5T4x NKG2D-cl-10 (H-L) (protein, part only; not given: anti-CD3 Fab, anti-5T4 scFv, linkers, not shown: another chain or arm of the molecule; small tags and cut ends)
VH: B9 VH
VL: B9 VL
B12: IM1091 CD3/5T4/NKG2D mut(VL-VH) (protein, part only; not given: anti-CD3 Fab, anti-5T4 scFv, linkers, not shown: another chain or arm of the molecule; small tags and cut ends)
VL: QSALTQPASVSGSPGQSITISCSGSSSNIGNNAVNWYQQLPGKAPKLLIYADDLLPSGVSDRFSGSKSGTSAFLAISGLQSEDEADYYCAAWDDSLNGPVFGGGTKLTVL
VH: QVQLVESGGGLVKPGGSLRLSCAASGFTFSSYGMHWVRQAPGKGLEWVAFIRYDGSNKYYADSVKGRFTISRDNSKNTLYLQMNSLRAEDTAVYYCAKDAGEGDGTYFDYWGQGTTVTVSS

Key:
[1] = biological target: cyno-NKG2D/Dap10 over-expressed in CHO cells (cyno) (UniProt P61252); test: FACS on CHO cells over expressing cynoNKG2D
cyno-NKG2D/Dap10 over-expressed in CHO cells (cyno), sequence (P61252 whole entry): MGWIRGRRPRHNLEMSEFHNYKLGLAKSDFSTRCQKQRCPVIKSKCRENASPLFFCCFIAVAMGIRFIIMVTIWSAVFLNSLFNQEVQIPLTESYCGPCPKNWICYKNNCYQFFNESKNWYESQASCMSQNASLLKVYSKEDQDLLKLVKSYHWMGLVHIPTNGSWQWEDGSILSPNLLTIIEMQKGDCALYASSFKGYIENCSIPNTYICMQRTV

[2] = biological target: T1, NKG2D on primary NK cells purified from …; test: FACS on cells
[3] = biological target: T1, NKG2D on primary NK cells purified from …; test: FACS on primary NK cells, two concentrations
[4] = biological target: recombinant human NKG2D-ECD-Fc (extracellular domain of NKG2D fused to human Fc) (human) (UniProt P26718); test: ELISA on coated NKG2D-ECD-Fc
[5] = biological target: T1, NKG2D on primary NK cells purified from …; test: FACS on primary NK cells, 100 nM and 10 nM
[6] = biological target: NKG2D on primary NK cells purified from healthy donor's PBMCs (human) (UniProt P26718); test: cell-based or functional assay

| Binder | EC50 [1] [nM] | EC50 [4] [nM] | further results |
| --- | --- | --- | --- |
| B1 | 15 |  |  |
| B2 |  |  | binding result [2]: binds |
| B3 | 30 |  |  |
| B4 | 2.3 |  |  |
| B5 |  |  | binding result [3]: binds |
| B6 | 21 | 2.6 |  |
| B7 | 13 | 1.1 |  |
| B8 |  |  | binding result [5]: binds |
| B9 | 5.9 | 1.7 |  |
| B10 |  |  | binding result [5]: binds |
| B11 | 5.3 | 0.7 |  |
| B12 |  |  | activation as measured by CD107a MFI on CD56^+gated NK cells population [6]: 35 to 40% |
